Measured values taken from the supplement of paper PMC10567573.

B1: RAB40B (parent)
chain: YSLTTSSTHKRSSLRKVKLVRPPQ
B2: APBB1IP (parent)
chain: PPEPLSQVSMWDQRWQDHQPLLPI

Variants of: B1
Assay: protein stability index of a GFP-peptide fusion (GPS, HEK-293T) (PSI 1-6); higher = more stable
Conditions: c terminus: a fixed tail appended
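Note: lentivirally expressed fusions sorted by FACS into six bins by GFP to DsRed ratio, PSI derived from sequencing read proportions per bin multiplied by bin number.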

| Variant | protein stability index |
| --- | --- |
| R21N | 2.92 |
| R21I | 2.52 |
| R21A | 3.15 |
| R21W | 2.25 |
| R21L | 3.61 |
| R21P | 2.89 |
| Y1E | 4.12 |
| Y1S | 4.16 |
| Y1P | 3.97 |
| Y1F | 2.81 |
| Y1M | 3.2 |
| V20W | 2.22 |
| V20D | 3.66 |
| V20K | 3.7 |
| V20T | 3.25 |
| V20I | 2.48 |
| V20N | 2.85 |
| V20C | 3.25 |
| V20G | 2.71 |
| R11Q | 3.46 |
| R11D | 3.4 |
| R11Y | 2.51 |
| R11E | 3.33 |
| R11M | 2.99 |

| Variant | protein stability index |
| --- | --- |
| R11S | 2.77 |
| V17W | 2.53 |
| V17C | 2.91 |
| V17P | 3.13 |
| V17R | 4.01 |
| V17F | 2.67 |
| V17M | 2.75 |
| V17I | 2.63 |
| T4W | 1.35 |
| T4M | 2.55 |
| T4K | 3.33 |
| T4H | 2.81 |
| T4R | 3.33 |
| T4S | 3.38 |
| K10G | 3.21 |
| K10Y | 3.05 |
| K10D | 3.23 |
| K10V | 2.55 |
| K10R | 3.18 |
| K10Q | 2.3 |
| K10N | 2.85 |
| K16D | 3.59 |
| K16L | 2.35 |
| K16T | 3.03 |

| Variant | protein stability index |
| --- | --- |
| K16F | 2.13 |
| K16H | 2.54 |
| K16E | 3.52 |
| K16A | 2.93 |
| S2D | 3.75 |
| S2C | 2.3 |
| S2I | 1.98 |
| S2P | 2.74 |
| S2W | 1.64 |
| S2E | 3.12 |
| S2N | 2.96 |
| S2K | 2.95 |
| S2Q | 2.74 |
| S2H | 2.09 |
| S2A | 2.44 |
| S2T | 2.81 |
| S2V | 2.38 |
| S7Y | 2.35 |
| S7E | 3.34 |
| S7F | 2.27 |
| S7G | 3.23 |
| T5M | 2.97 |
| T5I | 1.86 |
| T5N | 3.83 |

| Variant | protein stability index |
| --- | --- |
| T5H | 2.81 |
| T5Q | 3.44 |
| T5F | 2.05 |
| T5E | 3.62 |
| T5L | 2.91 |
| T5V | 2.79 |
| Q24I | 2.22 |
| Q24G | 2.82 |
| Q24V | 2.31 |
| Q24A | 2.53 |
| Q24H | 3.12 |
| Q24M | 2.49 |
| R15L | 2.44 |
| R15H | 2.51 |
| R15G | 2.97 |
| R15Y | 1.86 |
| P22M | 2.76 |
| P22V | 2.48 |
| P22G | 2.44 |
| P22I | 2.27 |
| P22Q | 3.39 |
| P22E | 3.5 |
| P22H | 2.49 |
| P22A | 2.76 |

| Variant | protein stability index |
| --- | --- |
| S6Q | 2.92 |
| S6D | 3.05 |
| S6Y | 2.48 |
| S6I | 2.58 |
| S12G | 3.36 |
| S12E | 3.07 |
| S12C | 2.41 |
| S12L | 2.33 |
| S12R | 3.32 |
| S12N | 3.16 |
| S12D | 3.71 |
| S12P | 3.15 |
| S12A | 2.97 |
| P23T | 3.62 |
| P23C | 2.73 |
| P23Q | 3.08 |
| P23S | 3.25 |
| P23G | 2.69 |
| H9Y | 2.38 |
| H9R | 3.29 |
| H9Q | 3.62 |
| H9M | 2.52 |
| H9E | 2.72 |
| H9P | 3.08 |

| Variant | protein stability index |
| --- | --- |
| H9G | 3.23 |
| H9N | 3.11 |
| H9T | 3.32 |
| H9D | 3.22 |
| H9C | 2.72 |
| H9W | 1.82 |
| T8P | 3.38 |
| T8G | 3.71 |
| T8C | 2.8 |
| T8R | 2.57 |
| T8M | 2.98 |
| T8K | 3.02 |
| L14H | 3.46 |
| L14M | 2.64 |
| L14R | 3.69 |
| L14K | 3.37 |
| L14P | 3.86 |
| L14V | 3.25 |
| L14C | 2.6 |
| K18Q | 3.09 |
| K18M | 2.22 |
| K18R | 2.38 |
| K18L | 2.49 |
| K18W | 2.32 |

| Variant | protein stability index |
| --- | --- |
| K18E | 3.43 |
| K18F | 2.54 |
| K18A | 3.2 |
| K18N | 2.98 |
| K18T | 2.81 |
| L3P | 2.96 |
| L3C | 3 |
| S13H | 3.18 |
| S13M | 2.47 |
| S13G | 2.86 |
| S13Y | 2.53 |
| S13K | 3.49 |
| S13F | 2.12 |
| S13D | 2.58 |
| S13I | 2.74 |
| S13T | 2.4 |
| L19I | 2.9 |
| L19M | 3.13 |
| L19Y | 2.81 |
| L19P | 3.63 |
| L19R | 3.18 |

Variants of: B2
Assay: as above
Conditions: c terminus: a fixed tail appended

| Variant | protein stability index |
| --- | --- |
| P4G | 2.79 |
| P4H | 3.22 |
